# Experimental data published in publication PMC10183829, “Shuffled ATG8 interacting motifs form an ancestral bridge between UFMylation and autophagy” (The EMBO Journal, 2023).
# Substitutions are numbered along the chain they refer to. No end group written: not given here. TAMRA = 5(6)-carboxytetramethylrhodamine
# T1: mCh-HsC53 (human, UniProt Q96JB5 1-506)
# T1 construct: also called mCherry-tagged human C53; not shown: mCherry, N-terminal, kept
# T1 sequence (looked up): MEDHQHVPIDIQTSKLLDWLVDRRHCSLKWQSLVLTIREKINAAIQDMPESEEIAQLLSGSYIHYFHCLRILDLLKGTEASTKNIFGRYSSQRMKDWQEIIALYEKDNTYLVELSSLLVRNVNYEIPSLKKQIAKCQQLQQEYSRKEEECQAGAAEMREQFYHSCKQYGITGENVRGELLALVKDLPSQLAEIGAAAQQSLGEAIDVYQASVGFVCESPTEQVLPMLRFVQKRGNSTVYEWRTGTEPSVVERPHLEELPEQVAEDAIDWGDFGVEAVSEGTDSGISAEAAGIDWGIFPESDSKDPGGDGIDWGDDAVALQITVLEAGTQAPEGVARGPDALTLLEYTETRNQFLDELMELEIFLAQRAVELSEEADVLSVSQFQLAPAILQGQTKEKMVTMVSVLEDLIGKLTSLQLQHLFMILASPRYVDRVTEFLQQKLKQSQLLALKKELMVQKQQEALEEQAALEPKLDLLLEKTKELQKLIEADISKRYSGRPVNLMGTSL
# T2: ATG8A (purified) (Arabidopsis thaliana, UniProt Q8LEM4 1-117)
# T2 construct: ATG8A, Arabidopsis thaliana; 3C site after the His6 tag; 15N-labelled or unlabelled in NMR; also called HIS6-3C-ATG8A; source: E. coli Rosetta2 (DE3) pLysS, purified (HisTrap, ion exchange, SEC)
# T2 sequence (looked up): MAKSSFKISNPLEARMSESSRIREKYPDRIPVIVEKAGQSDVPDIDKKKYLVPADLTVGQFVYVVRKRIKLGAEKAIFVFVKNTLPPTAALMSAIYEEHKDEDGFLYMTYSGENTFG
# B1: AtUBA5 LIR peptide (peptide)
# peptide: GPLHDDNEWNISVVDD
# notes: LIR/UFIM peptide of UBA5; also called AtUBA5 LIR/UFIM peptide; UBA5 LIR/UFIM; source: synthetic peptide (synthetized in house)
# B2: GABARAP (purified) (natural protein, human)
# chain: FVYKEEHPFEKRRSEGEKIRKKYPDRVPVIVEKAPKARIGDLDKKKYLVPSDLTVGQFYFLIRKRIHLRAEDALFFFVNNVIPPTSATMGQLYQEHHEEDFFLYIAYSDESVYG
# notes: GABARAP, Homo sapiens; 15N-labelled in the NMR titration; also called HIS6-3C-GABARAP; HIS6-GABARAP; source: E. coli Rosetta2 (DE3) pLysS, purified (HisTrap, ion exchange, SEC)
# B3: HsC53^cAIM (purified, ITC) (natural protein)
# chain: T1 sequence (looked up) with I267W, W269G, G270I, I292W, W294G, G295I, I310W, W312G, G313I
# notes: source: E. coli Rosetta2 (DE3) pLysS, purified
# B4: GST-GABARAP (natural protein, human, UniProt O95166 1-117, looked up)
# chain: MKFVYKEEHPFEKRRSEGEKIRKKYPDRVPVIVEKAPKARIGDLDKKKYLVPSDLTVGQFYFLIRKRIHLRAEDALFFFVNNVIPPTSATMGQLYQEHHEEDFFLYIAYSDESVYGL
# notes: also called human ATG8 isoform GABARAP; human ATG8; not shown: GST, N-terminal, kept
# B5: GST-ATG8A (natural protein)
# chain: T2 sequence (looked up)
# notes: also called Arabidopsis ATG8A; not shown: GST, N-terminal, kept
# Key:
# Details in all cases: both partners purified
# HsUFM1 (purified) = target: T3, HsUFM1 (purified) (human, UniProt P61960 1-85); assay: native MS; HsUFM1 (5 μM) with peptide (25 μM); ammonium acetate, nanoelectrospray, Synapt G2Si
# T3 construct: UFM1, Homo sapiens; 15N-labelled in the NMR titration; also called human UFM1; source: E. coli Rosetta2 (DE3) pLysS, purified (HisTrap, ion exchange, SEC)
# [1] = target: B3; assay: ITC
# GABARAP (purified) = target: B2; assay: ITC
# mCh-HsC53 = target: T1, mCh-HsC53; assay: microscopy-based on-bead protein-protein interaction assay
# cAIM wt peptide = assay: as above
# AtUFM1 (purified) = target: T4, AtUFM1 (purified) (Arabidopsis thaliana); assay: fluorescence polarisation; fluorescence anisotropy; ATG8A or AtUFM1 (250 nM-320 μM) added to 50 nM TAMRA-labeled peptide, 10 min at 4°C
# T4 construct: UFM1, Arabidopsis thaliana; 15N-labelled or unlabelled in NMR; also called HIS6-3C-AtUFM1; HIS6-AtUFM1; source: E. coli Rosetta2 (DE3) pLysS, purified (HisTrap, ion exchange, SEC)
# ATG8A (purified) = target: T2, ATG8A (purified); assay: as above
# T3 sequence (P61960 whole entry): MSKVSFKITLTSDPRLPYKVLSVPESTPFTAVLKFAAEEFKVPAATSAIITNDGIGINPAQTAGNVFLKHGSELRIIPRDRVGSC
binder,measurement,setting,value
B1,stoichiometry N,HsUFM1 (purified),1
B2,Kd,[1],11.2 µM
B3,fold increase in affinity against the C53 wild type,GABARAP (purified),1.8 fold
B4,binding result,mCh-HsC53,binds
B5,binding result,cAIM wt peptide,binds
"{TAMRA}-AADSIDWDITVETPEIDWDVSMVEEV [sAIM1,2 peptide (AtC53 IDR-derived peptide that covers both sAIM1 and sAIM2)]",Kd,AtUFM1 (purified),148 µM
same,Kd,ATG8A (purified),26.5 µM
